Data taken from patent US20260176659A1, “IMPROVED METHOD FOR THE PRODUCTION OF NATURAL VANILLIN” (BASE SE, priority 2022, published 2026).

Columns and labels:
[1] = Biotransformation of coniferyl alcohol to vanillin catalysed by IECO (5 mM); type: biochemical; conditions: 5 mM 2a; for Consumption of 2a / Conversion of 2a to 3a (%) / Conversion of 2a to 5a (%) / Reaction composition at 24 hours (%) 2a / Reaction composition at 24 hours (%) 3a / Reaction composition at 24 hours (%) 5a: pH 9.0
Procedure: 180 mg of coniferyl alcohol were weighted and dissolved in 10 mL ethanol and stored at −20° C. (stock 100 mM). The reaction mixtures (0.5 mL) were set up in 1.5 mL glass vials as follows: […] (50 mM, pH 9.0) together with sodium ascorbate (1 mM), FeSO4 (1 mM) and bovine liver catalase (Sigma C40, 0-10 mg/mL). The reaction was initiated by the addition of coniferyl alcohol stock (0.025 mL, final concentration 5 mM), then it was incubated for 24 hours at 30° C. and 120 rpm (rotary shaker). Note that the reaction contained 5% v/v ethanol deriving from the substrate stock. To improve the oxygenation, the vials were placed horizontally. At certain time points, reaction samples were taken and quenched with methanol (2 vol. equivalents). The mixture was centrifuged for 5-10 mins at 20238 g. Then supernatant was finally transferred in a HPLC vial for analysis.

[2] = Spectrophotometric enzymatic assay: cleaving activity, production of vanillin from coniferyl alcohol at 349 nm; type: biochemical; conditions: freeze-dried cell free extract incl. buffer salts; vanillin from coniferyl alcohol
Procedure: Stock solution 200× of coniferyl alcohol (90 mg) was prepared in ethanol (5 mL) and stored at −20° C. From this, a new stock solution 20× of coniferyl alcohol (10 mM) was freshly prepared by 1:10 dilution in Glycine-NaOH (50 mM, pH 9.0). A cuvette containing 0.750 mL Glycine-NaOH (50 mM, pH 9.0) and 0.05 mL of the substrate 20× stock was pre-warmed at 25° C. for 1.5 mins. Then, the reaction was initiated by the addition of 0.2 mL of the enzyme sample. The cleaving […] activity was measured spectrophotometrically following the production of vanillin at 349 nm (ε349=26.7 mM^−1cm^−1 experimentally determined). One unit of activity (U) is defined as the amount of enzyme required to produce 1 μmol of vanillin per min. Agilent Cary 60 UV-Vis Spectrophotometer was used for all the measurements.
Searching for alternative novel alkene cleavage oxygenases (COs) catalysing the formation of vanillin from coniferyl alcohol was performed. A set of 27 sequences and 10 COs from different branches of the phylogenetic tree were selected, named CO-02-11. Two additional enzymes were included, which are located in different clusters of the phylogenetic tree: Lignostillbene dioxygenase from Pseudomonas brassicaceraum (PbLSD, PDB: 5V2D) and aromatic dioxygenase (Ado, CO-01) from Thermothelomyces thermophilus (GenBank ID: XP_003665585). The proteins were recombinantly expressed in E. coli BL21(DE3), following the same protocol developed for IECO. […] Putative COs were screened by spectrophotometric assay, monitoring the formation of 3a upon 2a cleavage. From a set of twelve COs, four positive hits, namely CO-01, CO-03, CO-06 and CO-07 were found. Positive variants were tested in the one pot cascade and compared them with IECO In agreement with the spectrophotometric screening, all four COs converted eugenol 1a to vanillin 3a (Table 8). The first step of the cascade is efficiently performed by EUGO, and the substrate is completely consumed. […] Overall, 70±3% conversion of 1a to vanillin 3a was achieved.

[3] = IECO CFE Fresh 1 mg/mL, 24 h, non-optimised
[4] = IECO CFE Fresh 2 mg/mL, 24 h, non-optimised
[5] = IECO CFE Stored at −20° 2 mg/mL, 24 h, non-optimised
[6] = IECO CFE Stored at −20° C. 3 mg/mL, 24 h, non-optimised
[7] = IECO fresh CFE 1 mg/mL, catalase 0 mg/mL
[8] = IECO fresh CFE 1 mg/mL, catalase 2 mg/mL
[9] = IECO fresh CFE 1 mg/mL, catalase 10 mg/mL
[10] = IECO fresh CFE 2 mg/mL, catalase 0 mg/mL
[11] = IECO fresh CFE 2 mg/mL, catalase 2 mg/mL
[12] = IECO fresh CFE 2 mg/mL, catalase 10 mg/mL
[13] = IECO fresh CFE 4 mg/mL, catalase 0 mg/mL
[14] = IECO fresh CFE 4 mg/mL, catalase 2 mg/mL
[15] = IECO fresh CFE 4 mg/mL, catalase 10 mg/mL

B1: IECO: isoeugenol cleavage oxygenase from Pseudomonas nitroreducens (GenBank: ACP17973), SEQ ID NO: 24 (protein, listed as Pseudomonas nitroreducens)
chain: MARLNRNDPQLVGTLLPTRIEADLFDLEVDGEIPKSINGTFYRNTPEPQVTPQKFHTFIDGDGMASAFHFEDGHVDFISRWVKTARFTAERLARKSLFGMYRNPYTDDTSVKGLDRTVANTSIISHHGKVLAVKEDGLPYELDPRTLETRGRFDYDGQVTSQTHTAHPKYDPETGDLLFFGSAAKGEATPDMAYYIVDKHGKVTHETWFEQPYGAFMHDFAITRNWSIFPIMPATNSLSRLKAKQPIYMWEPELGSYIGVLPRRGQGSQIRWLKAPALWVFHVVNAWEVGTKIYIDLMESEILPFPFPNSQNQPFAPEKAVPRLTRWEIDLDSSSDEIKRTRLHDFFAEMPIMDFRFALQCNRYGFMGVDDPRKPLAHQQAEKIFAYNSLGIWDNHRGDYDLWYSGEASAAQEPAFVPRSPTAAEGDGYLLTVVGRLDENRSDLVILDTQDIQSGPVATIKLPFRLRAALHGCWVPRP
[1]; IECO 4 mg CFE/mL in the presence of catalase, 24 h
  vanillin afforded: 3.6 ± 0.6 mM
[1]; [3]
  Consumption of 2a: 24%
  Conversion of 2a to 3a (%): 9%
[1]; [4]
  Consumption of 2a: 45%
  Conversion of 2a to 3a (%): 17%
[1]; [5]
  Consumption of 2a: 12%
  Conversion of 2a to 3a (%): 4%
  Conversion of 2a to 5a (%): 1%
[1]; [6]
  Consumption of 2a: 18%
  Conversion of 2a to 3a (%): 5%
  Conversion of 2a to 5a (%): 13%
[1]; [7]
  Reaction composition at 24 hours (%) 2a: 46 ± 3%
  Reaction composition at 24 hours (%) 3a: 51 ± 3%
  Reaction composition at 24 hours (%) 5a: 3 ± 1%
[1]; IECO fresh CFE 1 mg/mL, catalase 0 mg/mL, 24 h
  Conversion of 2a to 3a (%): 38 ± 4%
[1]; [8]
  Reaction composition at 24 hours (%) 2a: 41 ± 6%
  Reaction composition at 24 hours (%) 3a: 58 ± 6%
  Reaction composition at 24 hours (%) 5a: 1 ± 0.1%
[1]; IECO fresh CFE 1 mg/mL, catalase 2 mg/mL, 24 h
  Conversion of 2a to 3a (%): 44 ± 5%
[1]; [9]
  Reaction composition at 24 hours (%) 2a: 41 ± 3%
  Reaction composition at 24 hours (%) 3a: 58 ± 1%
  Reaction composition at 24 hours (%) 5a: 1 ± 0.1%
[1]; IECO fresh CFE 1 mg/mL, catalase 10 mg/mL, 24 h
  Conversion of 2a to 3a (%): 45 ± 3%
[1]; [10]
  Reaction composition at 24 hours (%) 2a: 25 ± 4%
  Reaction composition at 24 hours (%) 3a: 71 ± 4%
  Reaction composition at 24 hours (%) 5a: 5 ± 1%
[1]; IECO fresh CFE 2 mg/mL, catalase 0 mg/mL, 24 h
  Conversion of 2a to 3a (%): 53 ± 3%
[1]; [11]
  Reaction composition at 24 hours (%) 2a: 27 ± 3%
  Reaction composition at 24 hours (%) 3a: 72 ± 3%
  Reaction composition at 24 hours (%) 5a: 1 ± 0.3%
[1]; IECO fresh CFE 2 mg/mL, catalase 2 mg/mL, 24 h
  Conversion of 2a to 3a (%): 58 ± 3%
[1]; [12]
  Reaction composition at 24 hours (%) 2a: 22 ± 4%
  Reaction composition at 24 hours (%) 3a: 77 ± 4%
  Reaction composition at 24 hours (%) 5a: 1 ± 0.1%
[1]; IECO fresh CFE 2 mg/mL, catalase 10 mg/mL, 24 h
  Conversion of 2a to 3a (%): 59±3%
[1]; [13]
  Reaction composition at 24 hours (%) 2a: 9.1 ± 3%
  Reaction composition at 24 hours (%) 3a: 82 ± 5%
  Reaction composition at 24 hours (%) 5a: 9 ± 4%
[1]; IECO fresh CFE 4 mg/mL, catalase 0 mg/mL, 24 h
  Conversion of 2a to 3a (%): 56 ± 10%
[1]; [14]
  Reaction composition at 24 hours (%) 2a: 11 ± 3%
  Reaction composition at 24 hours (%) 3a: 84 ± 5%
  Reaction composition at 24 hours (%) 5a: 5 ± 4%
[1]; IECO fresh CFE 4 mg/mL, catalase 2 mg/mL, 24 h
  Conversion of 2a to 3a (%): 62 ± 10%
[1]; [15]
  Reaction composition at 24 hours (%) 2a: 13 ± 1%
  Reaction composition at 24 hours (%) 3a: 86 ± 13%
  Reaction composition at 24 hours (%) 5a: 1 ± 0.1%
[2]
  Specific Activity (mU/mg of FD-CFE): 2.8 mU/mg
